As usually defined, the stoichiometry N is a count of units in the complex or per binding partner.

Assay [1] has as its target XfYgiT, antitoxin of the toxin-antitoxin system of Xylella fastidiosa subsp. pauca strain 9a5c (Xylella fastidiosa subsp. pauca strain 9a5c). In words: SEC.
Assay [2] shares this target. In words: AUC.
For assay [3] the target is unchanged. Kind of assay: ITC. (Isothermal titration calorimetry measures the heat released or taken up as one component is titrated into another.)
For assay [4] the target is unchanged. In words: SEC; […], sodium phosphate buffer ([…]. In general terms: In gel filtration, larger molecules generally elute earlier.

In turn, “XfMqsR, toxin of the toxin-antitoxin system of Xylella fastidiosa subsp. pauca strain 9a5c (natural protein)” yielded a stoichiometry N (mol/mol (printed as 1:1)) in assay [1] of 1. The stoichiometry N (mol/mol (printed as 2:2)) in assay [2] was found to be 1. In assay [3], this substance came in with a dH of -8.61 kcal/mol and a stoichiometry N (mol/mol (printed as 1:1)) of 1.
For the substance “XfYgiT, antitoxin of the toxin-antitoxin system of Xylella fastidiosa subsp. pauca strain 9a5c (natural protein)”, the stoichiometry N in assay [2] and in assay [4] was 2 each time.

For the origin of these results see PMC5167779.
